Test results as given in publication PMC3429642.

Target: Full-length DEMETER (DME) fused with the GAL4 DNA binding domain (Arabidopsis) (UniProt Q8LK56)
Test: two-hybrid

Chain of UniProt Q8LK56 (Q8LK56 whole entry, the tested form may be a part): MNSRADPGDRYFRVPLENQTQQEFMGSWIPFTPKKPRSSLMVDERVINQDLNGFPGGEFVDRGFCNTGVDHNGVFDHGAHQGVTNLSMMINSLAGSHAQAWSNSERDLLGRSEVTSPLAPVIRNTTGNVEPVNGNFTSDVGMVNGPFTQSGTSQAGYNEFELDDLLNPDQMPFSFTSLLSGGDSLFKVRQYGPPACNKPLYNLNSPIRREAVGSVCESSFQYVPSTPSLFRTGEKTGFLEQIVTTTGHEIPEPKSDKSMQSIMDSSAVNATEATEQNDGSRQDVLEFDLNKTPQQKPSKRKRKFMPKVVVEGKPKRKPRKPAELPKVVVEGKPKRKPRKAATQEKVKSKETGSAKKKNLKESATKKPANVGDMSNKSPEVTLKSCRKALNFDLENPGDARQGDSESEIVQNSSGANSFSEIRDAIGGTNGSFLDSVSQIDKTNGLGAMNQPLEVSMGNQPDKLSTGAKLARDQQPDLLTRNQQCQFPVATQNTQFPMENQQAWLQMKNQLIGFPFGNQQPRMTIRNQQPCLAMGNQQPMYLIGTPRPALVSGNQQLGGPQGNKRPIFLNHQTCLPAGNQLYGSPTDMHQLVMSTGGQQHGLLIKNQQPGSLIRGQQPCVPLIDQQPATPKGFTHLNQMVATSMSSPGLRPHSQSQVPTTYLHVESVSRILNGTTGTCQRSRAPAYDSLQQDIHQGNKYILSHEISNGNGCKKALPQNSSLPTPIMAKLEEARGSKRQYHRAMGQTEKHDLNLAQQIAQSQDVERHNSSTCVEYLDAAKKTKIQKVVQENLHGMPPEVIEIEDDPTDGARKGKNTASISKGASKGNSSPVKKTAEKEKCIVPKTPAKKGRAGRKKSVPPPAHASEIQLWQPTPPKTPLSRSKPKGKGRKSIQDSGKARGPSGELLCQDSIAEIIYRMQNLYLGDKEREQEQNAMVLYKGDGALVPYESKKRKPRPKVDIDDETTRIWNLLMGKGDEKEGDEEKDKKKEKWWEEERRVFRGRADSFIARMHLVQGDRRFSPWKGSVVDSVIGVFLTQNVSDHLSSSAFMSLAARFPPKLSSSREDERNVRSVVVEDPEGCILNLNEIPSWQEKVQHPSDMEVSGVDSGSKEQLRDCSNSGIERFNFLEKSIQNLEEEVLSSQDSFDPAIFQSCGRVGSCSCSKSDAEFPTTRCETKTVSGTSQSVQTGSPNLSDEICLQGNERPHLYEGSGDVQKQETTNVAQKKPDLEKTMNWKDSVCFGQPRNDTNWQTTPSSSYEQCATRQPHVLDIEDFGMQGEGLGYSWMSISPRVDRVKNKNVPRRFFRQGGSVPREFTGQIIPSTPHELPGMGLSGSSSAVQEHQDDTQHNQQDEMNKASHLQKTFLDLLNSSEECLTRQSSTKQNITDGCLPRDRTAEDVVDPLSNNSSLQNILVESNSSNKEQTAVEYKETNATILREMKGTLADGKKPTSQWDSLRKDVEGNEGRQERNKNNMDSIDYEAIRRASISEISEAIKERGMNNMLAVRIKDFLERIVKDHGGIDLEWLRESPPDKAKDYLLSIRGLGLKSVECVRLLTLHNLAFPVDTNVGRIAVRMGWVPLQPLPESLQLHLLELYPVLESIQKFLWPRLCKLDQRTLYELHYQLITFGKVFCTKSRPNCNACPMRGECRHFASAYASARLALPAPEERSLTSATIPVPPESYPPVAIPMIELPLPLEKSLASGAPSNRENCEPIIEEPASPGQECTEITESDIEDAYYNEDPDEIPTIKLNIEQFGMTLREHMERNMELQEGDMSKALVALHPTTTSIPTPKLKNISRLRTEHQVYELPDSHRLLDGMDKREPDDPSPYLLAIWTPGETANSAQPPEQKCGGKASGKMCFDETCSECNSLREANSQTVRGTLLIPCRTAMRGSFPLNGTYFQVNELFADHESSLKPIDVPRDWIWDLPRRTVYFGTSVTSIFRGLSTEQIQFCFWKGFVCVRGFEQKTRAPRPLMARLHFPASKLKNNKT

β-galactosidase activity: 1.67 units
Substance: Histone H1.2 fused with the GAL4 activation domain (natural protein)
